Measured values from article PMC6699855 (The Journal of Biological Chemistry, 2019).
“Also recorded” adds a separate entry of the source. Positions of bridges follow the written chain, without caps; N, C: chain ends. Non-standard residues stand in square brackets, D forms with d. Residues, ends and D or L forms follow the SMILES beside them.

How the values were obtained:
[1] = Proteolytic stability in human plasma; format: in vitro ADME; details: 100 μg in 100 μl human plasma, 37 °C, stopped with 20% TCA; for degradation in human plasma after 18 h: LC-MS/HPLC
Experimental: The proteolytic stability of full-length Evasin-3 and its variants was tested in pooled human plasma from healthy volunteers (Fig. S12A).
100 μg of Evasin-3 variants were dissolved in 100 μl of normal plasma taken from a healthy volunteer and incubated at 37 °C. At a required time point reaction was stopped by addition of 15 μl of 20% TCA to a 15-μl aliquot of a sample and analyzed by LC-MS.

[2] = test system: CXCL8-induced migration of polymorphonuclear neutrophils; experiment: PMN migration assay (chemotaxis chamber); format: cell-based; details: 1 nM CXCL8 plus 10 nM variant; human neutrophils, 5-μm membrane, 90 min at 37 °C; n = 10 (Evasin-3), 9 (tEv3 17–56), 5 (tcEv3 16–56 dPG); CXCL8 alone 624 ± 458, control 98 ± 83
Experimental: To assess the anti-CXCL8 activity of Evasin-3 variants, polymorphonuclear neutrophil (PMN) migration assays were performed. The addition of 1 nM CXCL8 induced significant migration of PMNs (624 ± 458 PMN/mm^2) compared with controls (98 ± 83 PMN/mm^2) in the absence of chemoattractant (Fig. 6). Migration was inhibited by addition of 10 nM of Evasin-3 (206 ± 203 PMN/mm^2).
Human neutrophils were isolated from the blood of healthy donors as described previously ([57]). Isolated neutrophils were resuspended at (10^6 cells/ml) in RPMI 1640 medium supplemented with 1% fetal calf serum. A 12-well chemotaxis chamber with a 5-μm polycarbonate membrane (Neuroprobe, Gaithersburg, MD) was used to assess the migration of neutrophils toward the chemoattractant CXCL8 (1 nM) in presence or absence of Evasin-3 variants (10 nM). The chemoattractant was added in the lower wells, and the neutrophils (1 × 10^5 cells) were seeded in the upper wells. After incubation of 90 min at 37 °C, the nonmigrated cells were carefully removed, and the membrane was stained with Diff-Quick stain (Eberhard Lehmann GmbH, Berlin, Germany). Migrated cells were visualized by light microscopy, counted manually in three fields of view, and expressed as cells/mm^2. The data were analyzed by GraphPad Prism 8.0 software using one-way analysis of variance statistical test.

[3] = molecular target: human CXCL8 (interleukin-8), recombinant, residues 6–77 (human); experiment: NMR titration
[4] = pooled human plasma from healthy volunteers; details: 37 °C, up to 18 h
[5] = molecular target: human CXCL8 (interleukin-8), recombinant, residues 6–77 (human); experiment: SEC; protein alone at 0.1 mg/ml; BioSep SEC-s2000; 50 mM sodium phosphate pH 6.65, 150 mM NaCl; masses from the maker's calibration curve
[6] = molecular target: T1, CXCL8–GAG (fondaparinux) complex (Homo sapiens, UniProt P10145); experiment: GAG competition for [15N,13C]CXCL8 binding by NMR; details: 30 μM met-Evasin-3 added to 25 μM [15N,13C]CXCL8 with fondaparinux (up to 10-fold excess), 25 °C, pH 7.1; 15N-1H HSQC
T1 construct: human CXCL8 (UniProt: p10145, 6–77); made in house; host or cells: E. coli BL21 (DE3) Star
T1 sequence (P10145 28-99): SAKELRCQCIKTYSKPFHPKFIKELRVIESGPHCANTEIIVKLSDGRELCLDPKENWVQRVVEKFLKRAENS
Description: To study competition between Evasin-3 and GAGs for CXCL8 binding, [^15N,^13C]CXCL8 was first titrated with increasing concentrations of dalteparin (Fragmin®, Pfizer) and low-molecular-mass heparin with the average molecular mass of 5 kDa. […] Fondaparinux (Arixtra®, GSK), which comprises the five central sulfated sugar units in heparin, has the well-defined composition and the lower molecular mass (1.7 kDa) comparing with Fragmin. For that reason, fondaparinux facilitates collection of NMR spectra of higher quality and was chosen for further NMR titration experiments. […] Observed changes were consistent with results of previous studies describing the interaction of CXCL8 with several heparin oligosaccharides ([29]).
For GAG-binding experiments low-molecular-mass heparin dalteparin (commercial name Fragmin®, Pfizer) and fondaparinux (commercial name Arixtra®, GSK) were purchased from a pharmacy as solutions for injections. 25 μM of [^15N,^13C]CXCL8 was titrated by increasing concentration of aliquots from a stock solution of 5 mg/ml fondaparinux or Fragmin to the final GAG concentration of 0.2 mM at 25 °C, pH 7.1. In the next step, 30 μM of met-Evasin-3 was added to the solution to monitor the displacement of bound fondaparinux and follow Evasin-3–CXCL8 complex formation by a series of 1D proton and ^15N-^1H HSQC spectra.

[7] = molecular target: human CXCL8 (interleukin-8), recombinant, residues 6–77 (human); experiment: NMR titration; [15N,13C]CXCL8 (200 μM) titrated with unlabelled met-Evasin-3; 15N-1H HSQC and filtered NOESY; 25 mM NaAc-d3 pH 4.5, 37 °C; equilibrium after up to 1 h
[8] = molecular target: T2, chemically synthetized CXCL8-Biotin (C-terminally biotinylated human CXCL8) (human, UniProt P10145 28-99, biotin at the C-terminus); experiment: SPR; details: both partners purified
T2 construct: also called immobilized human CXCL8; source: chemically synthetized; not shown: biotin, C-terminal, kept
T2 sequence (looked up): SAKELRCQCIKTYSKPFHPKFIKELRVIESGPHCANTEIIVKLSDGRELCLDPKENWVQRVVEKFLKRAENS

human CXCL8 = molecular target: T3, human CXCL8 (Homo sapiens, UniProt P10145); experiment: SPR biosensor affinity to immobilized CXCL8; format: binding; details: SPR sensorgrams; association 250 s, dissociation 300 s, 30 μl/min; PBS pH 7.4, 0.05% Tween 20
T3 construct: made in house; host or cells: chemical synthesis (no expression host)
T3 sequence (P10145 21-99): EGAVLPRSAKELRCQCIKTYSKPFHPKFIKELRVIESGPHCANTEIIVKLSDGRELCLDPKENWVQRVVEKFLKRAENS

CXCL8 = details: binding to CXCL8; read-out: Kd value previously measured; cited from earlier work
Description: In contrast to Evasin-1, where both the N and C termini play a crucial role in chemokine binding ([27], [38]), neither the N nor C terminus of Evasin-3 participate in CXCL8 binding. […] To study the effect of termini on binding, we synthesized two novel CXCL8-binding peptides: linear tEv3 17–56 and cyclic tcEv3 16–56 dPG, both retaining the ICK bundled core of the native protein. The ...

CC[C@H](C)[C@H](NC(=O)[C@H](CCCCN)NC(=O)[C@H](Cc1ccc(O)cc1)NC(=O)[C@@H]1CSSC[C@@H]2NC(=O)[C@H](CCC(=O)O)NC(=O)[C@H](CC(N)=O)NC(=O)[C@H](CCC(N)=O)NC(=O)CNC(=O)[C@H](CO)NC(=O)[C@H]([C@@H](C)O)NC(=O)[C@@H]3CSSC[C@H](NC(=O)[C@H](Cc4ccccc4)NC(=O)[C@H](CSSC[C@H](NC(=O)[C@H](CO)NC(=O)[C@@H](NC(=O)[C@@H](NC(=O)[C@H](CC(=O)O)NC(=O)[C@@H](N)Cc4ccccc4)C(C)C)C(C)C)C(=O)N[C@@H](CC(N)=O)C(=O)N[C@@H](CCCCN)C(=O)N[C@@H](CC(N)=O)C(=O)N3)NC(=O)CNC(=O)[C@H](CCC(=O)O)NC(=O)[C@@H]3CCCN3C2=O)C(=O)NCC(=O)N[C@@H](CC(C)C)C(=O)N[C@@H](CC(C)C)C(=O)NCC(=O)N[C@@H](CCC(N)=O)C(=O)N[C@@H](CC(N)=O)C(=O)N[C@@H](CCCCN)C(=O)N[C@@H](CCCCN)C(=O)NCC(=O)N[C@@H](Cc2c[nH]cn2)C(=O)N1)C(=O)N[C@H](C(=O)NCC(=O)N[C@@H](CC(N)=O)C(=O)O)[C@@H](C)CC [tEv3 17–56] (H-FDVVSCNKNCTSGQNECPEGCFCGLLGQNKKGHCYKIIGN-OH; disulfide 6-21, 10-23, 17-34)
degradation in human plasma after 18 h [1]: equally high proteolytic stability

cyclo(CFCGLLGQNKKGHCYKIIGN[dP]GNFDVVSCNKNCTSGQNECPEG) (disulfide 1-29, 3-33, 14-40) [tcEv3 16–56 dPG]
degradation in human plasma after 18 h [1]: equally high proteolytic stability
PMN migration in presence of Evasin-3 variant [2]: 160 ± 65 PMN/mm^2

truncated Evasin-3 (tEv3 17–56) (from UniProt P0C8E8 37-76) (peptide)
stoichiometry N [3]: 1

LVSTIESRTSGDGADNFDVVSCNKNCTSGQNECPEGCFCGLLGQNKKGHCYKIIGNLSGEPPVVRR
cleaved bond [4]: Arg65-Arg66, 2 h; also recorded: V64-Arg65, 2 h

human CXCL8 (interleukin-8), recombinant, residues 6–77 (natural protein)
stoichiometry N [5]: 2

B1: met-Evasin-3 (Evasin-3 1–66 with an N-terminal methionine) (natural protein)
chain: MLVSTIESRTSGDGADNFDVVSCNKNCTSGQNECPEGCFCGLLGQNKKGHCYKIIGNLSGEPPVVRR
effect on GAG binding of CXCL8 [6]: completely abolished GAG binding
stoichiometry N [7]: 1

B2: truncated cyclic Evasin-3 16–56 with a D-Pro-Gly turn (tcEv3 16–56 dPG) (peptide)
chain: cyclo(NFDVVSCNKNCTSGQNECPEGCFCGLLGQNKKGHCYKIIGN[dP]G)
modifications: ends not checked
Kd [8]: 13 nM

B3: truncated Evasin-3 (tEv3 17–56) (peptide)
chain: FDVVSCNKNCTSGQNECPEGCFCGLLGQNKKGHCYKIIGN
Kd [8]: 27 nM

B4: Evasin-3: small salivary chemokine-binding protein from the brown dog tick Rhipicephalus sanguineus (UniProt p0c8e8, 1–66) (protein)
chain: LVSTIESRTSGDGADNFDVVSCNKNCTSGQNECPEGCFCGLLGQNKKGHCYKIIGNLSGEPPVVRR
association and dissociation kinetics compared with truncated variants (human CXCL8): slower association and dissociation kinetics
degradation in human plasma after 2 h ([1]; 2 h, LC-MS): degraded nearly quantitatively
degradation in human plasma after 18 h [1]: only ΔC2 could be detected
PMN migration in presence of Evasin-3 variant [2]: 206 ± 203 PMN/mm^2
Kd (CXCL8): 0.43 nM
